Reference: patent publication US20200057058A1 (MIT, published 2020)

Columns and labels:
streptavidin [1] = biological target: T1, streptavidin (UniProt P22629 37-163, limits assumed); assay: fluorescent binding assay, labeled SA in 50% blood serum on thin film, 4 h exposure
T1 construct: It was used without a stated label in the sandwich assays; also called SA

[2] = biological target: monomeric streptavidin variant mSA2; assay: fluorescent binding assay, labeled mSA2 in 50% blood serum on thin film, 4 h exposure
Description: (§1) The binding function of rcSso7d.SA oligomer-PNIPAM thin films was measured using fluorescently-labeled monomeric streptavidin (mSA2) and fluorescently-labeled streptavidin (SA). Details for the expression, purification, and fluorescent labeling of mSA2 are provided below. Samples were prepared by serial dilution of SA or mSA2 in PBS (pH 7.4), human urine (diluted to 50% v/v in PBS, pH 7.4), or blood serum (obtained as the supernatant by centrifuging whole blood at 1500×g for 10 minutes, then diluted to 50% v/v in PBS, pH 7.4). 0.5 μL drops of solutions containing serially diluted fluorescent mSA2 and fluorescent SA samples in PBS (pH 7.4) were gently applied to the surface of each bioconjugate thin film. Films were incubated in a sealed chamber saturated with water vapor at room temperature to prevent to prevent drying of the applied fluorescent samples. […] Fluorescence microscopy images were acquired at 4× magnification using a Cy5 filter set and exposure time of 5000 ms on an Olympus IX-81 inverted fluorescence microscope with an AxioCam HRC CCD camera. Fluorescent intensity was calculated using ImageJ software⁶⁷ by determining the average fluorescent signal in a rectangular area of the fluorescent image free of defects and occupying no less than half of the full sample application area.
(§2) To evaluate how the apparent size-based diffusion properties translated to biosensing capabilities, binding curves were measured using SA and mSA2 solutions in buffer. Binding curves were fit with a quadratic model that is a function of three parameters: the average MFI per binding event a, the total concentration of binding sites [P]T, and the apparent dissociation constant K_{d,app} describing the binding equilibrium between analyte and binding sites within the thin film.

streptavidin [3] = biological target: T1, streptavidin; assay: sandwich assay, SA in 50% blood serum, detection with biotin-HRP and TMB
Description: (§3) Each well was submerged in 1 mL of 1% BSA in Milli-Q water, and the 12-well plate was incubated at 37° C. for 30 minutes. The wells were rinsed twice by adding 2 mL of Milli-Q water and gently shaking the well plate at 70 rpm for 5 minutes. 1 mL of streptavidin diluted in PBS, urine, or blood serum (prepared as described in the Fluorescent Assays section) containing 0.1% BSA was then added to each well, and the well plate was shaken at 70 rpm for 4 hours at room temperature. Wells were rinsed twice with 2 mL of Milli-Q water then twice with 2 mL of 0.1% BSA in Milli-Q water by shaking at 70 rpm for 5 minutes. After rinsing, wells were submerged in 1 mL of 200 ng/mL biotin-HRP in Milli-Q water containing 0.1% BSA, and the well plate was shaken at 70 rpm for 1 hour at room temperature. Wells were then rinsed with water and 0.1% BSA as described previously. 1 mL of solution from a Pierce TMB substrate kit (Thermo Fisher Scientific) was added to each well, and the well plate was shaken vigorously at 125 rpm for 15 minutes at room temperature. 1 mL of 2M H2SO4 was added to each well, and the absorbance at 450 nm was read using a Tecan Infinite M200 PRO plate reader.
(§4) The general procedure for this proof-of-concept experiment is diagrammed in FIG. 28. Films were first exposed to SA solutions and rinsed to remove unbound analyte. Taking advantage of the strong interaction between SA and biotin, thin films were then submerged in a solution of biotinylated horseradish peroxidase (biotin-HRP). Bound SA was detected colorimetrically through the HRP-mediated oxidation of 3,3′,5,5′-tetramethylbenzidine (TMB). Attempts to perform this assay using mSA2 as the analyte were unsuccessful, even when run on an rcSso7d.SA monolayer.

streptavidin [4] = biological target: T1, streptavidin; assay: apparent Kd (Kd,app); fluorescent binding curve, labeled SA in 50% blood serum, 4 h; quadratic fit
[5] = biological target: monomeric streptavidin variant mSA2; assay: fluorescent binding assay, labeled mSA2 in 50% urine on thin film, 4 h exposure
Description: as §1, §2

[6] = biological target: monomeric streptavidin variant mSA2; assay: fluorescent binding curve, labeled mSA2 in 50% urine, 4 h; quadratic fit
streptavidin [7] = biological target: T1, streptavidin; assay: apparent Kd (Kd,app); fluorescent binding curve, labeled SA in PBS, 0.5 h exposure; quadratic fit
streptavidin [8] = biological target: T1, streptavidin; assay: apparent Kd (Kd,app); fluorescent binding curve, labeled SA in PBS, 4 h exposure; quadratic fit
[9] = biological target: monomeric streptavidin variant mSA2; assay: fluorescent binding curve, labeled mSA2 in 50% blood serum, 4 h; quadratic fit
[10] = biological target: monomeric streptavidin variant mSA2; assay: apparent Kd (Kd,app); fluorescent binding curve, labeled mSA2 in 50% blood serum, 4 h; quadratic fit
streptavidin [11] = biological target: T1, streptavidin; assay: fluorescent binding curve, labeled SA in 50% urine, 4 h; quadratic fit
streptavidin [12] = biological target: T1, streptavidin; assay: sandwich assay: SA in 50% urine, biotin-HRP/TMB detection
Description: as §3, §4

BSA = biological target: T2, BSA (bovine, UniProt P02769); assay: fluorescence of Alexa Fluor 488-labeled BSA retained in a 144 nm 3xSP77.6k thin film after rinsing with water for 0-30 s
T2 construct: full protein, fluorescently labeled; non-specific retention control; also called BSA labeled with Alexa Fluor 488
T2 sequence (P02769 25-607 limits assumed): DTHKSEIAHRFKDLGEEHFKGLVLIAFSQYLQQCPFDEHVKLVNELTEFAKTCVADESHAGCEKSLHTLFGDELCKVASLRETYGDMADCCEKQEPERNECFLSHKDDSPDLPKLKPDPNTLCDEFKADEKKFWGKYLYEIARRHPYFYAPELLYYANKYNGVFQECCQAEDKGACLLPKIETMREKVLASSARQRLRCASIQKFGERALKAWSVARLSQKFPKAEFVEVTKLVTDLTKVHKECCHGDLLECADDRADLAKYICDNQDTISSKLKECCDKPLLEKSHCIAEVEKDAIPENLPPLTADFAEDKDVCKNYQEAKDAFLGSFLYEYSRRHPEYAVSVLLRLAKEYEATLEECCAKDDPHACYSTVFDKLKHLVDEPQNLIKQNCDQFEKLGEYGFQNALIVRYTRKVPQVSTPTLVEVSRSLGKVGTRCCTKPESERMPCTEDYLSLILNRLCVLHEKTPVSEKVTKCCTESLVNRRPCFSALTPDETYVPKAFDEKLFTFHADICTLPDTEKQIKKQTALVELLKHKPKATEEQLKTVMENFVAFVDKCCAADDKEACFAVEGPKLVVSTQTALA

streptavidin [13] = biological target: T1, streptavidin; assay: fluorescent binding curve fits, labeled SA in PBS, 30 min exposure
Description: as §1, with “film.” for “film. Films were incubated in a sealed chamber saturated with water vapor at room temperature to prevent to prevent drying of the applied fluorescent samples.”
(§5) To evaluate how the apparent size-based diffusion properties translated to biosensing capabilities, binding curves were measured using SA and mSA2 solutions in buffer. […]

streptavidin [14] = biological target: T1, streptavidin; assay: fluorescent binding curve, labeled SA in 50% blood serum, 4 h; quadratic fit
[15] = biological target: monomeric streptavidin variant mSA2; assay: apparent Kd (Kd,app); fluorescent binding curve, labeled mSA2 in 50% urine, 4 h; quadratic fit
streptavidin [16] = biological target: T1, streptavidin; assay: apparent Kd (Kd,app); fluorescent binding curve, labeled SA in PBS, 8 h exposure; quadratic fit
streptavidin [17] = biological target: T1, streptavidin; assay: sandwich assay, SA in PBS, detection with biotin-HRP and TMB, absorbance at 450 nm
Description: as §3
The general procedure for this proof-of-concept experiment is diagrammed in FIG. 28. […] Bound SA was detected colorimetrically through the HRP-mediated oxidation of 3,3′,5,5′-tetramethylbenzidine (TMB). […]

[18] = biological target: monomeric streptavidin variant mSA2; assay: fluorescent binding curves, labeled mSA2 in 50% urine or 50% blood serum, 4 h
streptavidin [19] = biological target: T1, streptavidin; assay: sandwich assay: SA in 50% blood serum, biotin-HRP/TMB detection
Description: as §3, §4

streptavidin [20] = biological target: T1, streptavidin; assay: fluorescent binding curve, labeled SA in PBS, 4 h exposure; quadratic fit
streptavidin [21] = biological target: T1, streptavidin; assay: fluorescent binding curve, labeled SA in 50% blood serum, 4 h
Description: as §1, with “film.” for “film. Films were incubated in a sealed chamber saturated with water vapor at room temperature to prevent to prevent drying of the applied fluorescent samples.”
as §5

streptavidin [22] = biological target: T1, streptavidin; assay: fluorescent binding assay, labeled SA in 50% urine on thin film, 4 h exposure
streptavidin [23] = biological target: T1, streptavidin; assay: apparent Kd (Kd,app); fluorescent binding curve, labeled SA in 50% urine, 4 h; quadratic fit

T1 sequence (P22629 37-163 limits assumed): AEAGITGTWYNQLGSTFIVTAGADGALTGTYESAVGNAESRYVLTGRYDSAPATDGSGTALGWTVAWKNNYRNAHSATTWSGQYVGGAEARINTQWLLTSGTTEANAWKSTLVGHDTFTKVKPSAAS

B1: 3xSP77.6k thin film (3x rcSso7d.SA-PNIPAM conjugate, PNIPAM Mn 77.6 kDa) (designed binder)
chain: MGSSHHHHHHSSGLVPRGSHMCATVKFTYQGEEKQVDISKIKIVARDGQYIDFKYDEGGGAYGYGWVSEKDAPKELLQMLEKQGGGGSGGGGSMATVKFTYQGEEKQVDISKIKIVARDGQYIDFKYDEGGGAYGYGWVSEKDAPKELLQMLEKQGGGGSGGGGSMATVKFTYQGEEKQVDISKIKIVARDGQYIDFKYDEGGGAYGYGWVSEKDAPKELLQMLEKQGG
modifications: maleimide end-functionalized PNIPAM (Mn 77.6 kDa) on the N-terminal Cys; film lightly crosslinked with glutaraldehyde
- Limit of Detection (streptavidin [1]): 420 nM
- Limit of Detection [2]: 56 nM
- LOD relative to rcSso7d.SA monolayer (streptavidin [3]): 2 fold
- Kd (streptavidin [4]): 40 µM
- Limit of Detection [5]: 14 nM
- [P]T (total concentration of binding sites) [6]: 15 nM
- Kd (streptavidin [7]): 80 µM
- Kd (streptavidin [8]): 17 µM
- [P]T (total concentration of binding sites) [9]: 4.5 nM
- Kd [10]: 35 µM
- [P]T (total concentration of binding sites) (streptavidin [11]): 0.3 nM
- LOD (streptavidin [12]): 33 nM
- binding result (BSA): no binding (tested: 10 µM)
- binding sites accessed relative to the 3×SP9.6k film (streptavidin [13]): ~4 fold
- [P]T (total concentration of binding sites) (streptavidin [14]): 0.6 nM
- Kd [15]: 31 µM
- Kd (streptavidin [16]): 15 µM
- LOD relative to rcSso7d.SA monolayer (streptavidin [17]): ~2 fold
- LOD relative to rcSso7d.SA monolayer [18]: 2 orders of magnitude lower
- LOD (streptavidin [19]): 85 nM
- [P]T (total concentration of binding sites) (streptavidin [20]): 0.41 nM
- reduction in LOD relative to rcSso7d.SA monolayer (streptavidin [21]): ~2 fold
- Limit of Detection (streptavidin [22]): 800 nM
- Kd (streptavidin [23]): 50 µM
